Source: publication PMC3962490, “The Yeast Ess1 Prolyl Isomerase Controls Swi6 and Whi5 Nuclear Localization” (G3: Genes|Genomes|Genetics, 2014)
Each block holds one binder with its values, some of them ahead of it. Non-standard residues stand in square brackets, D forms with d. No end group written: not given here. *: point of attachment. Biotin = O=C1N[C@H]2[C@H](CS[C@H]2CCCCC(=O)*)N1; pS = N[C@@H](COP(=O)(O)O)C(=O)O

B2: CTD-P peptide (phosphorylated peptide corresponding to the CTD of RNAPII) (peptide)
peptide: Biotin-GGSGGSYSPT[pS]PSYS
notes: flexible linker ([Gly-Gly-Ser]2); based on the consensus heptapeptide repeat in the carboxy-terminal domain (CTD) of Rpb1, largest subunit of RNA polymerase II; The phosphoserine is Ser5 of the heptad YSPTSPS; also called phospho-CTD peptide; phosphorylated CTD peptide; source: synthetic peptide (NEOBioLab), HPLC purified >95%
B3: Recombinant S. cerevisiae Ess1 protein (enzyme, UniProt P22696 1-170, looked up)
chain: MPSDVASRTGLPTPWTVRYSKSKKREYFFNPETKHSQWEEPEGTNKDQLHKHLRDHPVRVRCLHILIKHKDSRRPASHRSENITISKQDATDELKTLITRLDDDSKTNSFEALAKERSDCSSYKRGGDLGWFGRGEMQPSFEDAAFQLKVGEVSDIVESGSGVHVIKRVG
notes: Ess1 peptidyl prolyl cis/trans isomerase, S. cerevisiae; also called purified Ess1 protein; Ess1 prolyl isomerase; source: Escherichia coli, purified as described (Li et al. 2005)
B4: Swi6-NLS-P peptide (peptide)
peptide: Biotin-GGSGGSRELG[pS]PLKK
notes: flexible linker ([Gly-Gly-Ser]2); By the printed limits the phosphoserine is Ser160; also called phosphorylated Swi6-NLS peptide; phospho-Swi6 peptide; source: synthetic peptide (NEOBioLab), HPLC purified >95%
B7: Whi5-NLS-P peptide (peptide)
peptide: Biotin-GGSGGTP[pS]PP[pS]PPGI
notes: flexible linker; By the printed limits the phosphoserines are Ser59 and Ser62; also called phosphorylated Whi5-NLS peptide; Whi5 phospho-peptide; source: synthetic peptide (NEOBioLab), HPLC purified >95%
B8: Whi5-NES-P peptide (peptide)
peptide: Biotin-GGSGGFL[pS]P[pS]PRLR[pS]PPT
notes: flexible linker; Whi5, S. cerevisiae, residues 152-164 (portion of the nuclear export signal); By the printed limits the phosphoserines are Ser154, Ser156 and Ser161; also called phosphorylated Whi5-NES peptide; Whi5 phospho-peptide; source: synthetic peptide (NEOBioLab), HPLC purified >95%

Assays:
Test in all cases: BLI; Octet RED, 24°; N-terminally biotinylated peptides immobilised on streptavidin biosensors; Ess1 in solution (3, 10, 30 μM); 20 mM Tris-HCl pH 8.0, 1 mg/mL BSA; no-peptide sensor subtracted; apparent dissociation constants (Kapp) from kinetic and equilibrium data, considering only the predominant faster-dissociating signal; for unphosphorylated peptides Kapp estimated from the signal at 30 μM Ess1
Settings in all cases: both partners purified
[1] = molecular target: B3
Whi5-NES-P peptide = molecular target: B8
[2] = molecular target: B2
Swi6-NLS-P peptide = molecular target: B4
Whi5-NLS-P peptide = molecular target: B7
[3] = molecular target: B3; remark: listed apart in the source

Kd [1]: > 1500 µM
B1: Whi5-NES peptide (unphosphorylated) (peptide)
peptide: Biotin-GGSGGFLSPSPRLRSPPT
notes: flexible linker; Whi5, S. cerevisiae, residues 152-164 (portion of the nuclear export signal); source: synthetic peptide (NEOBioLab), HPLC purified >95%

Binder: B2
Kd [1]: 2.12 µM

Binder: B3
KappEq (equilibrium) (Whi5-NES-P peptide): 1.13 ± 0.18 µM
KappK (kinetic) (Whi5-NES-P peptide): 3.25 ± 0.7 µM
KappEq (equilibrium) [2]: 1.65 ± 0.06 µM
KappK (kinetic) [2]: 2.58 ± 0.65 µM
KappEq (equilibrium) (Swi6-NLS-P peptide): 10.1 ± 5.1 µM
KappK (kinetic) (Swi6-NLS-P peptide): 7.25 ± 4.63 µM
KappEq (equilibrium) (Whi5-NLS-P peptide): 0.48 ± 0.46 µM
KappK (kinetic) (Whi5-NLS-P peptide): 2.87 ± 0.82 µM

Binder: B4
koff [3]: 0.254 s⁻¹
Kd [1]: 8.67 µM

Kd [1]: > 25 µM
B5: Whi5-NLS peptide (unphosphorylated) (peptide)
peptide: Biotin-GGSGGTPSPPSPPGI
notes: flexible linker; source: synthetic peptide (NEOBioLab), HPLC purified >95%

Kd [1]: > 100 µM
B6: Swi6-NLS peptide (unphosphorylated) (peptide)
peptide: Biotin-GGSGGSRELGSPLKK
notes: flexible linker ([Gly-Gly-Ser]2); source: synthetic peptide (NEOBioLab), HPLC purified >95%

Binder: B7
Kd [1]: 1.67 µM

Binder: B8
Kd [1]: 2.19 µM

Kd [1]: > 300 µM
B9: CTD peptide (unphosphorylated) (peptide)
peptide: Biotin-GGSGGSYSPTSPSYS
notes: flexible linker ([Gly-Gly-Ser]2); based on the consensus heptapeptide repeat in the carboxy-terminal domain (CTD) of Rpb1, largest subunit of RNA polymerase II; also called unphosphorylated CTD peptide; unphosphorylated CTD control peptide; source: synthetic peptide (NEOBioLab), HPLC purified >95%
